This is an account of results in FireProtDB (doi:10.1006/jmbi.2000.3958).

The chains are these.
B1: Cyclin-dependent kinases regulatory subunit, P08463 (parent)
chain: MSKSGVPRLLTASERERLEPFIDQIHYSPRYADDEYEYRHVMLPKAMLKAIPTDYFNPETGTLRILQEEEWRGLGITQSLGWEMYEVHVPEPHILLFKREKDYQMKFSQQRGG

Variants of B1 are the subject of this data set. Conditions: Schizosaccharomyces pombe (strain 972 / ATCC 24843); pH 7.5; 25 °C; Urea; Fluorescence; Tris 50 mM; structure 1SCE; whole UniProt chain shown.

Take P90G: the “ddG of mutation (higher = less stable)” value is -1.33 kcal/mol, the denaturant m value was determined as 1.53 kcal/mol/M and the “denaturant midpoint (higher = more stable)” value (shortened to “denaturant midpoint”) amounted to 5.25 M.
The matching figures for P92G: -0.07 kcal/mol, 1.55 kcal/mol/M and 4.46 M.
The matching figures for P92A: -0.07 kcal/mol, 1.78 kcal/mol/M and 4.46 M.
Consider P20A, for which the “ddG of mutation (higher = less stable)” value was 0.3 kcal/mol, the denaturant m value amounted to 1.5 kcal/mol/M and the “denaturant midpoint” value was 4.23 M.
The like results for P7A were, in that order, 0.2 kcal/mol, 1.57 kcal/mol/M and 4.29 M.
The matching figures for P29A: -0.23 kcal/mol, 1.39 kcal/mol/M and 4.56 M.
The like results for P44A were, in that order, 3.04 kcal/mol, 1.56 kcal/mol/M and 2.52 M.
With P52A, the “ddG of mutation (higher = less stable)” value was determined as 2.57 kcal/mol, the denaturant m value was 1.75 kcal/mol/M and the “denaturant midpoint” value stood at 2.81 M.
The like results for P90A P92A were, in that order, -0.93 kcal/mol, 1.4 kcal/mol/M and 5 M.
The matching figures for S28G: -0.89 kcal/mol, 1.62 kcal/mol/M and 4.98 M.
Turning to S28A, the “ddG of mutation (higher = less stable)” value is 0.34 kcal/mol, the denaturant m value stood at 1.61 kcal/mol/M and the “denaturant midpoint” value is 4.21 M.
The matching figures for V89A: 0.24 kcal/mol, 1.6 kcal/mol/M and 4.27 M.
As for V89G, the “ddG of mutation (higher = less stable)” value is -0.81 kcal/mol, the denaturant m value came out at 1.63 kcal/mol/M and the “denaturant midpoint” value was found to be 4.93 M.
Turning to P90G P92G, the “ddG of mutation (higher = less stable)” value was -0.88 kcal/mol, the denaturant m value stood at 1.46 kcal/mol/M and the “denaturant midpoint” value worked out at 4.97 M.
